The target in the assay is C57BL/6 and BALB/c IL-4Rs on transfected TF-1 cells (association rates told for both together). The assay can be described thus: radioligand binding.

In turn, “iodinated recombinant murine IL-4 (125I-IL-4) (from UniProt P07750 21-140) (ligand)” came in with a kon of 3.33e+06 to 4.33e+06 M⁻¹ s⁻¹.

Broadly, the kon is the second-order rate constant of association. High values mean faster complex formation, low ones slower complex formation.

(Values after publication PMC2199121.)
